Source: patent US20230414771A1, “PREPARATION AND USE OF IMMUNOSTIMULATORY CONJUGATED COMPLEXES FOR TARGETED DELIVERY AND ACTIVATION” (YAFEI SHANGHAI BIOLOGY MEDICINE SCIENCE & TECHNOLOGY CO., …, priority 2020, published 2023)
*1 amine or outer side, *2 acyl side, *3 side chain or, on linkers, in order; H or OH if unused. Where a SMILES comes first, the peptide text is derived from it. [ ]: non-standard residue; d: D form. The star is where a group is joined. ξ: configuration not given here. Doxorubicin(3'-N) = COc1cccc2c1C(=O)c1c(O)c3c(c(O)c1C2=O)C[C@@](O)(C(=O)CO)C[C@@H]3O[C@H]1C[C@H](N*)[C@H](O)[C@H](C)O1; Dovitinib(4-NH) = CN1CCN(c2ccc3nc(-c4c(N*)c5c(F)cccc5[nH]c4=O)[nH]c3c2)CC1; Thyronine(3,5,3'-I3) = N[C@@H](Cc1cc(I)c(Oc2ccc(O)c(I)c2)c(I)c1)C(=O)O; Mal(CH2CH2O)6CH2CH2CO = O=C1C=CC(=O)N1CCOCCOCCOCCOCCOCCOCCC(=O)*; X9 = O=C([C@@H](Cc1cc(I)c(Oc2ccc(O)c(I)c2)c(I)c1)N[*:1])[*:2]; MaleimidoPEG4propanoyl = O=C1C=CC(=O)N1CCOCCOCCOCCOCCC(=O)*; Hexanoyl(6-maleimido) = O=C1C=CC(=O)N1CCCCCC(=O)*; Resiquimod = CCOCc1nc2c(N*)nc3ccccc3c2n1CC(C)(C)O; Propanoyl(3-maleimido) = O=C1C=CC(=O)N1CCC(=O)*; X1 = O=C1C=CC(=O)N1CCOCCOCCOCCC(=O)*; PABC = O=C(OCc1ccc(N[*:1])cc1)[*:2]; PEG6 = NCCOCCOCCOCCOCCOCCOCCC(=O)O; X3 = O=C1C=CC(=O)N1CCOCCOCCC(=O)*; PEG4 = NCCOCCOCCOCCOCCC(=O)O; PEG3 = NCCOCCOCCOCCC(=O)O; ξN = NC(=O)CC(N)C(=O)O

Tests used:
[1] = Water solubility test (observation and HPLC); assay type: physicochemical; conditions: thermodynamic from solid
Protocol: The compounds prepared in accordance with the examples of the disclosure and the reference compounds C1, C2, C3 and C4 were lyophilized (−70° C.).

[2] = system: Human hepatoma HepG2 cells; test: Human liver cancer HepG2 tumors in nude mice; assay type: in vivo; conditions: for Tumor volume (mm^3) Day 28: 54 umol/kg IV once a week for 4 weeks; for inhibition in vivo at 54 µmol/kg: Mus musculus, HepG2, iv, 672 h, read-out: Tumor inhibition rate (%) Day 28
Protocol: • 1. Animals: nude mice aged 6-8 weeks, all female. • 2. Preparation of tumor models
Human hepatoma HepG2 cells were purchased from ATCC and identified according to the instructions provided. […] Randomization was performed when the tumor size reached 100 mm^3.
Treatment was then initiated, and the day of initiation of treatment was counted as Day 1. • 3) Treatment process
According to the clinical application of the corresponding compound, the drug was administered intravenously (IV). The compound and the control drug were administered at a dose of 54 umol/kg, and DOX could only be administered at a dose of 18 umol/kg due to toxicity limitations.

| SMILES | solubility [1] [µg/mL] | Tumor volume (mm^3) Day 28 [2] [mm^3] | inhibition in vivo at 54 µmol/kg [2] [%] |
| --- | --- | --- | --- |
| CCOCc1nc2c(NC(=O)OCc3ccc(NC(=O)[C@@H](CC(N)=O)NC(=O)[C@H](C)NC(=O)[C@H](C)NC(=O)CCOCCOCCN4C(=O)C=CC4=O)cc3)nc3ccccc3c2n1CC(C)(C)O [QHL-005-Resiquimod] | > 10000 | – | – |
| CCOCc1nc2c(NC(=O)OCc3ccc(NC(=O)[C@@H](CC(N)=O)NC(=O)[C@H](C)NC(=O)[C@H](C)NC(=O)CCOCCOCCOCCN4C(=O)C=CC4=O)cc3)nc3ccccc3c2n1CC(C)(C)O [QHL-006-Resiquimod] | > 10000 | – | – |
| CCOCc1nc2c(NC(=O)OCc3ccc(NC(=O)[C@H](CC(N)=O)NC(=O)[C@H](C)NC(=O)[C@H](C)NC(=O)CCOCCOCCOCCOCCOCCOCCN4C(=O)C=CC4=O)cc3)nc3ccccc3c2n1CC(C)(C)O [QHL-008-Resiquimod] | > 10000 | – | – |
| COc1cccc2c1C(=O)c1c(O)c3c(c(O)c1C2=O)C[C@@](O)(C(=O)CO)C[C@@H]3O[C@H]1C[C@H](NC(=O)[C@H](CC(C)C)NC(=O)[C@H](CC(N)=O)NC(=O)[C@H](C)NC(=O)[C@H](C)NC(=O)CCOCCOCCN2C(=O)C=CC2=O)[C@H](O)[C@H](C)O1 [QHL-009-DOX] (X3-AANL-{Doxorubicin(3'-N)}) | – | 0 | 100 |
| COc1cccc2c1C(=O)c1c(O)c3c(c(O)c1C2=O)C[C@@](O)(C(=O)CO)C[C@@H]3O[C@H]1C[C@H](NC(=O)[C@H](CC(C)C)NC(=O)[C@H](CC(N)=O)NC(=O)[C@H](C)NC(=O)[C@H](C)NC(=O)CCOCCOCCOCCOCCN2C(=O)C=CC2=O)[C@H](O)[C@H](C)O1 [QHL-011-DOX] (MaleimidoPEG4propanoyl-AANL-{Doxorubicin(3'-N)}) | – | 98.1 ± 48.4 | 96.6 |
| COc1cccc2c1C(=O)c1c(O)c3c(c(O)c1C2=O)C[C@@](O)(C(=O)CO)C[C@@H]3O[C@H]1C[C@H](NC(=O)[C@H](CC(C)C)NC(=O)[C@H](CC(N)=O)NC(=O)[C@H](C)NC(=O)[C@H](C)NC(=O)CCOCCOCCOCCOCCOCCOCCN2C(=O)C=CC2=O)[C@H](O)[C@H](C)O1 [QHL-012-DOX] ({Mal(CH2CH2O)6CH2CH2CO}-AANL-{Doxorubicin(3'-N)}) | – | 197.4 ± 104.5 | 93.2 |
| C[C@@H](NC(=O)CCOCCOCCNC(=O)CCN1C(=O)C=CC1=O)C(=O)N[C@H](C)C(=O)N[C@H](CC(N)=O)C(=O)Nc1ccc(COC(=O)Nc2c(-c3nc4ccc(N5CCN(C)CC5)cc4[nH]3)c(=O)[nH]c3cccc(F)c23)cc1 [QHL-086 - Dovitinib] | > 20000 | – | – |
| CCOCc1nc2c(NC(=O)OCc3ccc(NC(=O)[C@H](CC(N)=O)NC(=O)[C@H](C)NC(=O)[C@H](C)NC(=O)CCOCCOCCNC(=O)CCN4C(=O)C=CC4=O)cc3)nc3ccccc3c2n1CC(C)(C)O [QHL-086-Resiquimod] | > 10000 | – | – |
| C[C@@H](NC(=O)CCOCCOCCNC(=O)CCN1C(=O)C=CC1=O)C(=O)N[C@H](C)C(=O)N[C@H](CC(N)=O)C(=O)Nc1ccc(COC(=O)Nc2nccc(-c3sc(C(C)(C)C)nc3-c3cccc(NS(=O)(=O)c4c(F)cccc4F)c3F)n2)cc1 [QHL-086-dabrafenib] | > 20000 | – | – |
| C[C@@H](NC(=O)CCOCCOCCOCCNC(=O)CCN1C(=O)C=CC1=O)C(=O)N[C@H](C)C(=O)N[C@H](CC(N)=O)C(=O)Nc1ccc(COC(=O)Nc2c(-c3nc4ccc(N5CCN(C)CC5)cc4[nH]3)c(=O)[nH]c3cccc(F)c23)cc1 [QHL-089 - Dovitinib] | > 20000 | – | – |
| C[C@@H](NC(=O)CCOCCOCCNC(=O)CCN1C(=O)C=CC1=O)C(=O)N[C@H](C)C(=O)N[C@H](CC(N)=O)C(=O)Nc1ccc(COC(=O)N2CC(C)(C)c3ccc(NC(=O)c4cccnc4NCc4ccncc4)cc32)cc1 [QHL-089-Motesani] | > 20000 | – | – |
| CCOCc1nc2c(NC(=O)OCc3ccc(NC(=O)[C@@H](CC(N)=O)NC(=O)[C@H](C)NC(=O)[C@H](C)NC(=O)CCOCCOCCOCCNC(=O)CCN4C(=O)C=CC4=O)cc3)nc3ccccc3c2n1CC(C)(C)O [QHL-089-Resiquimod] | > 10000 | – | – |
| C[C@@H](NC(=O)CCOCCOCCOCCNC(=O)CCN1C(=O)C=CC1=O)C(=O)N[C@H](C)C(=O)N[C@H](CC(N)=O)C(=O)Nc1ccc(COC(=O)Nc2nccc(-c3sc(C(C)(C)C)nc3-c3cccc(CS(=O)(=O)c4c(F)cccc4F)c3F)n2)cc1 [QHL-089-dabrafenib] | > 20000 | – | – |
| CC(C)C[C@H](NC(=O)[C@H](CC(N)=O)NC(=O)[C@H](C)NC(=O)[C@H](C)NC(=O)CCOCCOCCOCCNC(=O)CCN1C(=O)C=CC1=O)C(=O)Nc1c(-c2nc3ccc(N4CCN(C)CC4)cc3[nH]2)c(=O)[nH]c2cccc(F)c12 [QHL-090 - Dovitinib] ({Propanoyl(3-maleimido)-PEG3}-AANL-{Dovitinib(4-NH)}) | > 10000 | – | – |
| COc1cccc2c1C(=O)c1c(O)c3c(c(O)c1C2=O)C[C@@](O)(C(=O)CO)C[C@@H]3O[C@H]1C[C@H](NC(=O)[C@H](CC(C)C)NC(=O)[C@H](CC(N)=O)NC(=O)[C@H](C)NC(=O)[C@H](C)NC(=O)CCOCCOCCOCCNC(=O)CCN2C(=O)C=CC2=O)[C@H](O)[C@H](C)O1 [QHL-090-DOX] | – | – | 100 |
| CCOCc1nc2c(NC(=O)OCc3ccc(NC(=O)C(CC(N)=O)NC(=O)[C@H](C)NC(=O)[C@H](C)NC(=O)CCOCCOCCOCCOCCNC(=O)CCN4C(=O)C=CC4=O)cc3)nc3ccccc3c2n1CC(C)(C)O (stereo partly shown) [QHL-092-Resiquimod] | > 10000 | – | – |
| COc1cccc2c1C(=O)c1c(O)c3c(c(O)c1C2=O)C[C@@](O)(C(=O)CO)C[C@@H]3O[C@H]1C[C@H](NC(=O)[C@H](CC(C)C)NC(=O)[C@H](CC(N)=O)NC(=O)[C@H](C)NC(=O)[C@H](C)NC(=O)CCOCCOCCOCCOCCNC(=O)CCN2C(=O)C=CC2=O)[C@H](O)[C@H](C)O1 [QHL-093-DOX] ({Propanoyl(3-maleimido)-PEG4}-AANL-{Doxorubicin(3'-N)}) | – | – | 94.2 |
| CCOCc1nc2c(NC(=O)OCc3ccc(NC(=O)[C@H](CC(N)=O)NC(=O)[C@H](C)NC(=O)[C@H](C)NC(=O)CCOCCOCCOCCOCCOCCOCCNC(=O)CCN4C(=O)C=CC4=O)cc3)nc3ccccc3c2n1CC(C)(C)O [QHL-095-Resiquimod] | > 10000 | – | – |
| COc1cccc2c1C(=O)c1c(O)c3c(c(O)c1C2=O)C[C@@](O)(C(=O)CO)C[C@@H]3O[C@H]1C[C@H](NC(=O)[C@H](CC(C)C)NC(=O)[C@H](CC(N)=O)NC(=O)[C@H](C)NC(=O)[C@H](C)NC(=O)CCOCCOCCOCCOCCOCCOCCNC(=O)CCN2C(=O)C=CC2=O)[C@H](O)[C@H](C)O1 [QHL-096-DOX] ({Propanoyl(3-maleimido)-PEG6}-AANL-{Doxorubicin(3'-N)}) | – | – | 100 |
| CCOCc1nc2c(NC(=O)OCc3ccc(NC(=O)[C@H](CC(N)=O)NC(=O)[C@H](C)NC(=O)[C@H](C)NC(=O)[C@H](CCC(=O)O)NC(=O)CCCCCN4C(=O)C=CC4=O)cc3)nc3ccccc3c2n1CC(C)(C)O [QHL-116-Resiquimod] ({Hexanoyl(6-maleimido)}-EAAN[PABC]-Resiquimod) | > 10000 | – | – |
| COc1cccc2c1C(=O)c1c(O)c3c(c(O)c1C2=O)C[C@@](O)(C(=O)CO)C[C@@H]3O[C@H]1C[C@H](NC(=O)[C@H](CC(C)C)NC(=O)[C@H](CC(N)=O)NC(=O)[C@H](C)NC(=O)[C@H](C)NC(=O)[C@@H](NC(=O)CCCCCN2C(=O)C=CC2=O)C(C)C)[C@H](O)[C@H](C)O1 [QHL-123-DOX] ({Hexanoyl(6-maleimido)}-VAANL-{Doxorubicin(3'-N)}) | > 2000 | – | – |
| CCOCc1nc2c(NC(=O)OCc3ccc(NC(=O)[C@H](CC(N)=O)NC(=O)[C@H](C)NC(=O)[C@H](C)NC(=O)CCCCCN4C(=O)C=CC4=O)cc3)nc3ccccc3c2n1CC(C)(C)O [QHL-140-Resiquimod] | > 10000 | – | – |
| CCOCc1nc2c(NC(=O)OCc3ccc(NC(=O)[C@H](CC(N)=O)NC(=O)[C@H](C)NC(=O)[C@H](C)NC(=O)CCOCCOCCOCCOCCOCCOCCOCCOCCOCCOCCOCCOCCN4C(=O)C=CC4=O)cc3)nc3ccccc3c2n1CC(C)(C)O [QHL-147-Resiquimod] | > 10000 | – | – |
| C[C@H](NC(=O)CCOCCOCCN1C(=O)C=CC1=O)C(=O)N[C@@H](C)C(=O)N[C@H](CC(N)=O)C(=O)N[C@@H](Cc1cc(I)c(Oc2ccc(O)c(I)c2)c(I)c1)C(=O)O [QHL-153-T3] (X3-AA[dN][Thyronine(3,5,3'-I3)]-OH) | > 10000 | – | – |
| C[C@H](NC(=O)CCOCCOCCOCCN1C(=O)C=CC1=O)C(=O)N[C@@H](C)C(=O)N[C@H](CC(N)=O)C(=O)N[C@@H](Cc1cc(I)c(Oc2ccc(O)c(I)c2)c(I)c1)C(=O)O [QHL-154-T3] (X1-AA[dN][Thyronine(3,5,3'-I3)]-OH) | > 10000 | – | – |
| C[C@H](NC(=O)CCOCCOCCOCCOCCOCCOCCN1C(=O)C=CC1=O)C(=O)N[C@@H](C)C(=O)N[C@H](CC(N)=O)C(=O)N[C@@H](Cc1cc(I)c(Oc2ccc(O)c(I)c2)c(I)c1)C(=O)O [QHL-155-T3] ({Mal(CH2CH2O)6CH2CH2CO}-AA[dN][Thyronine(3,5,3'-I3)]-OH) | > 10000 | – | – |
| C[C@H](NC(=O)[C@H](C)NC(=O)[C@@H](CCC(=O)O)NC(=O)CCCCCN1C(=O)C=CC1=O)C(=O)N[C@@H](CC(N)=O)C(=O)N[C@H](Cc1cc(I)c(Oc2ccc(O)c(I)c2)c(I)c1)C(=O)O [QHL-161-T3] ({Hexanoyl(6-maleimido)}-[dE]AAN[X9]-OH) | > 10000 | – | – |
| C[C@H](NC(=O)[C@H](C)NC(=O)[C@@H](CC(=O)O)NC(=O)CCCCCN1C(=O)C=CC1=O)C(=O)NC(CC(N)=O)C(=O)N[C@H](Cc1cc(I)c(Oc2ccc(O)c(I)c2)c(I)c1)C(=O)O (stereo partly shown) [QHL-162-T3] ({Hexanoyl(6-maleimido)}-[dD]AA[ξN][X9]-OH) | > 10000 | – | – |
